According to IntAct's records for PubMed 21300063:

B1: Alsin (Homo sapiens), Q96Q42 (parent)
chain: MDSKKRSSTEAEGSKERGLVHIWQAGSFPITPERLPGWGGKTVLQAALGVKHGVLLTEDGEVYSFGTLPWRSGPVEICPSSPILENALVGQYVITVATGSFHSGAVTDNGVAYMWGENSAGQCAVANQQYVPEPNPVSIADSEASPLLAVRILQLACGEEHTLALSISREIWAWGTGCQLGLITTAFPVTKPQKVEHLAGRVVLQVACGAFHSLALVQCLPSQDLKPVPERCNQCSQLLITMTDKEDHVIISDSHCCPLGVTLTESQAENHASTALSPSTETLDRQEEVFENTLVANDQSVATELNAVSAQITSSDAMSSQQNVMGTTEISSARNIPSYPDTQAVNEYLRKLSDHSVREDSEHGEKPVPSQPLLEEAIPNLHSPPTTSTSALNSLVVSCASAVGVRVAATYEAGALSLKKVMNFYSTTPCETGAQAGSSAIGPEGLKDSREEQVKQESMQGKKSSSLVDIREEETEGGSRRLSLPGLLSQVSPRLLRKAARVKTRTVVLTPTYSGEADALLPSLRTEVWTWGKGKEGQLGHGDVLPRLQPLCVKCLDGKEVIHLEAGGYHSLALTAKSQVYSWGSNTFGQLGHSDFPTTVPRLAKISSENGVWSIAAGRDYSLFLVDTEDFQPGLYYSGRQDPTEGDNLPENHSGSKTPVLLSCSKLGYISRVTAGKDSYLALVDKNIMGYIASLHELATTERRFYSKLSDIKSQILRPLLSLENLGTTTTVQLLQEVASRFSKLCYLIGQHGASLSSFLHGVKEARSLVILKHSSLFLDSYTEYCTSITNFLVMGGFQLLAKPAIDFLNKNQELLQDLSEVNDENTQLMEILNTLFFLPIRRLHNYAKVLLKLATCFEVASPEYQKLQDSSSCYECLALHLGRKRKEAEYTLGFWKTFPGKMTDSLRKPERRLLCESSNRALSLQHAGRFSVNWFILFNDALVHAQFSTHHVFPLATLWAEPLSEEAGGVNGLKITTPEEQFTLISSTPQEKTKWLRAISQAVDQALRGMSDLPPYGSGSSVQRQEPPISRSAKYTFYKDPRLKDATYDGRWLSGKPHGRGVLKWPDGKMYSGMFRNGLEDGYGEYRIPNKAMNKEDHYVGHWKEGKMCGQGVYSYASGEVFEGCFQDNMRHGHGLLRSGKLTSSSPSMFIGQWVMDKKAGYGVFDDITRGEKYMGMWQDDVCQGNGVVVTQFGLYYEGNFHLNKMMGNGVLLSEDDTIYEGEFSDDWTLSGKGTLTMPNGDYIEGYFSGEWGSGIKITGTYFKPSLYESDKDRPKVFRKLGNLAVPADEKWKAVFDECWRQLGCEGPGQGEVWKAWDNIAVALTTSRRQHRDSPEILSRSQTQTLESLEFIPQHVGAFSVEKYDDIRKYLIKACDTPLHPLGRLVETLVAVYRMTYVGVGANRRLLQEAVKEIKSYLKRIFQLVRFLFPELPEEGSTIPLSAPLPTERKSFCTGKSDSRSESPEPGYVVTSSGLLLPVLLPRLYPPLFMLYALDNDREEDIYWECVLRLNKQPDIALLGFLGVQRKFWPATLSILGESKKVLPTTKDACFASAVECLQQISTTFTPSDKLKVIQQTFEEISQSVLASLHEDFLWSMDDLFPVFLYVVLRARIRNLGSEVHLIEDLMDPYLQHGEQGIMFTTLKACYYQIQREKLN

Variants of: B1
Conditions: with eea1_human EEA1, Q15075
eea1_human EEA1, Q15075, sequence (Q15075 whole entry): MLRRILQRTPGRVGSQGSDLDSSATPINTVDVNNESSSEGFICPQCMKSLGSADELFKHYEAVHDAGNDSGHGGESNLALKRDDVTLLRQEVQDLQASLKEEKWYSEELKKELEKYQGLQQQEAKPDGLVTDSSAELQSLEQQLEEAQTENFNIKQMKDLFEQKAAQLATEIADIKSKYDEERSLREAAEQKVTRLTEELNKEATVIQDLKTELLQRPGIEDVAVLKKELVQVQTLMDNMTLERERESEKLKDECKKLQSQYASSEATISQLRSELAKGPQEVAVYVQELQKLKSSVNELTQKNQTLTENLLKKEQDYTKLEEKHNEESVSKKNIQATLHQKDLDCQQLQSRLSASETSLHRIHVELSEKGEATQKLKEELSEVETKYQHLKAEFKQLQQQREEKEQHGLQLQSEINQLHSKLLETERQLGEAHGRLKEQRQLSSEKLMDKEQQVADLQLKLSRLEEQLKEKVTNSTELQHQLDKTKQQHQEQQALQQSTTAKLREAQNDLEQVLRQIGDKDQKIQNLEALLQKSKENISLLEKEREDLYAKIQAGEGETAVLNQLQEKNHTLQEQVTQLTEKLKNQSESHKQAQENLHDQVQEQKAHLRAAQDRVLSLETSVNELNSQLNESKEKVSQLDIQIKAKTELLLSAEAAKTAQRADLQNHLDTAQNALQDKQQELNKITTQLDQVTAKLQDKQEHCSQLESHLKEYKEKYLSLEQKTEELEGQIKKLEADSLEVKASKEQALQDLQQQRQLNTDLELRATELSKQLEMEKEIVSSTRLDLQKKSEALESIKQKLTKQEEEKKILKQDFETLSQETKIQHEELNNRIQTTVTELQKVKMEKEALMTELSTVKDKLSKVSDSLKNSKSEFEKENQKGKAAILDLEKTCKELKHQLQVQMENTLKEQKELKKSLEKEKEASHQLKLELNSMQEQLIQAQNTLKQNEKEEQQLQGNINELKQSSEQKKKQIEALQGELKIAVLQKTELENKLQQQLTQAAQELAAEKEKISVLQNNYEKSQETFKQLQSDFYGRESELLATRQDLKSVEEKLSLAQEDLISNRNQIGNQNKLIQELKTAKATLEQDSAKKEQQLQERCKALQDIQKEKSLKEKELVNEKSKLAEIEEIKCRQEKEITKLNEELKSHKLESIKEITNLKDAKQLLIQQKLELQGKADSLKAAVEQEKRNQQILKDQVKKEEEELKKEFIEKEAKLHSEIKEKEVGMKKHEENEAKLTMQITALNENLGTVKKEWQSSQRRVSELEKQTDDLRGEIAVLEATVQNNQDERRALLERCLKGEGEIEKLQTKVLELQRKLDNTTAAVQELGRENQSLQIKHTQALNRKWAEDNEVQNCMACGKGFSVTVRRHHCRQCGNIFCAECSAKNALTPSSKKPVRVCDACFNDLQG

effect of a mutation on the interaction | Variant
disrupting interaction | P1603A

Variants of: B1
Conditions: with rab5a_human RAB5A

effect of a mutation on the interaction | Variant
increasing interaction | G540E

Variants of: B1
Conditions: with eea1_human EEA1, Q15075
Remark: another data set of the same source

effect of a mutation on the interaction | Variant
disrupting interaction | G540E

Variants of: B1
Conditions: with rab5a_human RAB5A
Remark: another data set of the same source

effect of a mutation on the interaction | Variant
increasing interaction | C157Y

Variants of: B1
Conditions: with eea1_human EEA1, Q15075
Remark: another data set of the same source

effect of a mutation on the interaction | Variant
disrupting interaction | C157Y
